Measured values reported in patent publication US20250295734A1, “ANTICOAGULANT PROTEINS AND THEIR USE FOR TREATING DISEASES ASSOCIATED WITH THE ACTIVATION OF NEUTROPHILS” (BIOXODES, priority 2018, published 2025).
“Also recorded” adds a separate entry of the source.

Assays:
[1] = tested on: platelet accumulation and fibrin generation in Panc02 tumor-bearing mice; assay: Laser injury in pancreatic cancer-bearing mice (cancer-associated thrombosis model); type: in vivo, mice (C57BL/6JRj); settings: for fibrin generation compared to NaCl cancer mice / platelet accumulation compared to NaCl cancer mice: tumor-bearing mice
Procedure: Murine Panc02 cells (mouse pancreatic ductal adenocarcinoma cell line) were cultured to a 80% confluence in RPMI-1640 medium (Life Technologies) supplemented with 10% FCS (PAA), 1000 U/mL penicillin (Life Technologies), 100 μg/mL streptomycin (Life Technologies) and 0.1% fungizone (Life Technologies) at 37° C. in a humidified atmosphere with 5% CO2. Once in the exponential growth phase, cells were washed three times with PBS and briefly exposed to non-enzymatic cell dissociation buffer (Life
Technologies) to dislodge the cells. The cells were carefully washed three times, resuspended in PBS, and diluted to the desired concentration.
Five-week-old C57BL/6 mice were injected subcutaneously in the right flank with a tumor cell suspension (10^6 cells in 100 μL of PBS). When the tumor became palpable (0.2 cm), measurements in two dimensions were performed with a caliper, and the volume of each tumor was calculated according to the formula for the volume of an ellipsoid: π/6×a(b)^2, where a is the largest diameter and b the smallest diameter of the tumor.
Intravital video-microscopy of the cremaster muscle microcirculation was done as previously described (Falati et al., 2002) and as described hereinabove (see Example 1).
Vessel wall injury was induced with a Micropoint Laser System (Photonics Instruments) as described hereinabove (see Example 1).
Platelet and fibrin accumulation after injury were monitored and detected as indicated hereinabove (see Example 1).
Tumor-bearing mice were attributed to the Ir-CPI-treated group (Ir-CPI cancer) or to the control group (NaCl cancer). Moreover, cancer-free mice treated with NaCl (NaCl cancer-free) were also used as negative control. All mice were submitted to laser injuries in arterioles of the cremaster muscle to trigger thrombosis. Ir-CPI treated mice received either a low or a high dose of the investigative product.
Platelet accumulation and fibrin generation on the injured vessel walls were monitored using the following fluorescently labeled antibodies: DyLight649-labeled anti-GPIb antibody and Alexa Fluor 488-conjugated anti-fibrin antibody, respectively.

[2] = Quantification of Ir-CPI in plasma samples by ELISA; type: in vivo, mice (C57BL/6JRj); settings: iv bolus 20.5 mg/kg + infusion 3.7 mg/kg/h; after about 150 min of procedure; Mean±SEM, n=5
Procedure: Plasma (around 250 μL) was centrifuged at 18-22° C./at 2500 g during 15 min. Plasma was centrifuged again (18-22° C. at 2500 g during 15 min) and was stored into a polypropylene tube at −80° C. Plasma samples were later sent frozen on dry ice for dosage of the circulating concentration of Ir-CPI by ELISA.
The quantification of circulating Ir-CPI in the plasma samples was assessed by ELISA at Eurofins, ADME Bioanalyses (Vergèze, France). A sandwich immuno-assay was carried out using two anti-Ir-CPI antibodies. The capture monoclonal antibody (Ir-CPI3) was coated to microtitration plates (Nunc, ThermoFischer Scientific, USA) at 1 μg/mL overnight at 4° C. in PBS (Hyclone, USA). Wells were blocked with PBS BSA 2% (Sigma-Aldrich, USA) at room temperature (RT) for 1 h and were then washed. Samples were added into the wells and incubated for 2 h at RT. The biotinylated detection antibody (L39-biotin), previously diluted in PBS BSA 1% (Sigma-Aldrich, USA), was added to the wells and complemented with streptavidin-HRP (REF) diluted in PBS BSA 1%. TMB SureBlue (KPL, REF) and H2SO4 IN (VWR, USA) were used for spectrophotometric detection (450 nm).

[3] = tested on: clot fibrinolysis; settings: dose-dependent; in a lesser extend than aPTT; cited from earlier work
[4] = target: T1, FXII zymogen (Homo sapiens, UniProt P00748); settings: cited from earlier work
T1 sequence (P00748 20-615): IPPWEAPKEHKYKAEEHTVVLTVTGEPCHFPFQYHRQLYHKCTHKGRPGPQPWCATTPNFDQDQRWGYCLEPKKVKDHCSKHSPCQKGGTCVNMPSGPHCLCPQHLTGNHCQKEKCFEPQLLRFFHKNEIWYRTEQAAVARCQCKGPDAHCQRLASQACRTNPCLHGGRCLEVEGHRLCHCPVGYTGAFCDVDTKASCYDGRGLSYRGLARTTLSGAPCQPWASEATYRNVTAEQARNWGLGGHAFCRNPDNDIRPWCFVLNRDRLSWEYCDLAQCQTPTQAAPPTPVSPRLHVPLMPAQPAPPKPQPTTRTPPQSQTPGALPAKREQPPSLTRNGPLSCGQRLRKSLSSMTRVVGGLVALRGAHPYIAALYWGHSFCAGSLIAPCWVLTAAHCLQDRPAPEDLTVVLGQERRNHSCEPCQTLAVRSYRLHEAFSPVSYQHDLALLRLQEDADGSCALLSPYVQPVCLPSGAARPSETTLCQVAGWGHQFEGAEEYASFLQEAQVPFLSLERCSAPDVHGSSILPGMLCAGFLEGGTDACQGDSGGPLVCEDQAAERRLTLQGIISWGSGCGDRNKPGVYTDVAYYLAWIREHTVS

[5] = rodents; pharmacological therapeutic active dose; cited from earlier work
[6] = High dose: 20.5 mg/kg bolus + 3.7 mg/kg/h
[7] = Low dose: 10.3 mg/kg bolus + 1.9 mg/kg/h

B1: Ir-CPI: Ixodes ricinus salivary gland polypeptide, contact phase inhibitor, MW=7660 Da; sequence SEQ ID NO: 1 or SEQ ID NO: 2 (protein)
chain: ANHKGRGRPAKCKLPPDDGPCRARIPSYYFDRKTKTCKEFMYGGCEGNENNFENITTCQEECRAKKV
[1]; [6]
  fibrin generation compared to NaCl cancer mice: significant decrease
  platelet accumulation compared to NaCl cancer mice: significant decrease
[1]; High dose, vs NaCl cancer-free mice (*p<0.05) and NaCl cancer mice (***p<0.001)
  integrated fluorescence intensity of platelet labeling (area under curve): significantly lower
[1]; [7]
  fibrin generation compared to NaCl cancer mice: significant decrease
  platelet accumulation compared to NaCl cancer mice: significant decrease
[2]
  Mean plasma concentration: 6480 ± 1020 ng/mL
[3]
  clot fibrinolysis time: prolongs
[4]
  binding to FXII zymogen: but not to their zymogen forms; also recorded: unable to bind directly
[5]
  bleeding: does not increase bleeding
